Measurements reported in EP1870419A2 (Praecis Pharmaceuticals Incorporated, dated 2000).
Square brackets hold non-standard residues; d marks the D form. dPhe(4-F) = N[C@H](Cc1ccc(F)cc1)C(=O)O

The binders below were run against T1, Aβ1-40 peptide (natural β-amyloid peptide, β-AP1-40) (In the fibril binding assay the peptide stood as aged fibrils (many copies, number not stated). In the nucleation assay [CUT]) (assay: cell-based or functional assay).

| Binder | Nucleation assay data (Δlag), 0.3 µM compound | Nucleation assay data (Δlag), 1 µM compound | Nucleation assay data (Δlag), 3 µM compound |
| --- | --- | --- | --- |
| H-[dL][dF][dPhe(4-F)][dV][dL]-NH2 (also: TFA salt) [PPI-1319: TFA·H-(lf-[p-F]f-vl)-NH2] | 1 fold of control lag time | > 5 fold of control lag time | > 5 fold of control lag time |
| H-[dL][dF][dK][dV][dL]-NH2 (also: TFA salt) [PPI 1321: 2TFA·H-(lfkvl)-NH2] | < 1 fold of control lag time | < 1 fold of control lag time | < 1 fold of control lag time |

Molecular target: T1, Aβ1-40 peptide (natural β-amyloid …)
Test: cell-based or functional assay
Remark: another data set of the same source

| Binder | Nucleation assay Δlag, 1.25 µM compound | Nucleation assay Δlag, 2.5 µM compound | Nucleation assay Δlag, 5 µM compound |
| --- | --- | --- | --- |
| H-[dL][dV][dF][dF][dA]-NMe2 (also: TFA salt) [PPI 993: TFA·H-(lvffa)-dimethylamide] | 1 fold of control lag time | 1 fold of control lag time | 1 fold of control lag time |
| {N,N‑diethyl}-G[dA][dF][dF][dV][dL]-NH2 (also: TFA salt) [PPI 1005: TFA·N,N-diethyl-(Gaffvl)-NH2] | 1 fold of control lag time | 3 fold of control lag time | 3 fold of control lag time |
| {N,N‑diethyl}-[dA][dF][dF][dV][dL]-NH2 (also: TFA salt) [PPI 1006: TFA·N,N-diethyl-(affvl)-NH,] | 1 fold of control lag time | 1 fold of control lag time | 1 fold of control lag time |
| {N‑methyl}-G[dA][dF][dF][dV][dL]-NH2 (also: TFA salt) [PPI 968: TFA·N-methyl-(Gaffvl)-NH2] | 2 fold of control lag time | > 5 fold of control lag time | > 5 fold of control lag time |
| {N,N‑dimethyl}-G[dA][dF][dF][dV][dL]-NH2 (also: TFA salt) [PPI 803: TFA·N,N-dimethyl-(Gaffvl)-NH2] | < 1 fold of control lag time | < 1 fold of control lag time | < 1 fold of control lag time |
| {N,N‑dimethyl}-[dA][dF][dF][dV][dL]-NH2 (also: TFA salt) [PPI 913: TFA·N,N-dimethyl-(affvl)-NH2] | 1 fold of control lag time | 1 fold of control lag time | 1 fold of control lag time |
| {N‑isopropyl}-G[dA][dF][dF][dV][dL]-NH2 (also: TFA salt) [PPI 970: TFA·N-isopropyl-(Gaffvl)-NH2] | 1 fold of control lag time | > 5 fold of control lag time | > 5 fold of control lag time |
